From paper doi:10.1101/2020.10.16.20213991 (medRxiv, 2020) come the findings set out here.

The data set deals with the molecule itself. In words: SEC. (Size exclusion chromatography separates by hydrodynamic size, large species first.)

B1: cowpea chlorotic mottle virus (CCMV) coat protein (natural protein)
chain: MSTVGTGKLTRAQRRAAARKNKRNTRVVQPVIVEPIASGQGKAIKAWTGYSVSKWTASCAAAEAKVTSAITISLPNELSSERNKQLKVGRVLLWLGLLPSVSGTVKSCVTETQTTAAASFQVALAVADNSKDVVAAMYPEAFKGITLEQLTADLTIYLYSSAALTEGDVIVHLEVEHVRPTFDDSFTPVY
As to B1, the binding result was “binds”.
